Reference: US7795386B2, “Peptides comprising an isoDGR motif” (Molmed SpA, priority 2004, dated 2010)
One block for each molecule: values may come before it.

Assays:
EA.hy926 cells [1] = assay: PIMT treatment of coated products followed by EA.hy926 cell adhesion assay; format: cell-based, human; conditions: PIMT 16 h at 37° C.
Method: Microtiterplates were coated with heat-treated FN-I5 or NGR-TNF (A), or with natural FN-30 KDa, FN-45 KDa or retronectin (RN) (CNGRC disclosed as SEQ ID NO: 6) (B). The adsorbed proteins were then treated with PIMT enzyme for 16 h at 37° C. After incubation the enzyme solution was removed by washing. EA.hy926 cell adhesion assay was then performed as described in Materials and Methods.
The effect of protei nL-isoAsp/D-As pO-methyltransferase (PIMT) on the pro-adhesive properties of different fragments was investigated as follows: microtiter plates were coated with various products as described above and washed with 0.9% sodium chloride. Each well was then filled with 45 μl of a solution containing 0.02 mM S-adenosyl-L-methionine in 150 mM sodium chloride, 50 mM sodium phosphate buffer, pH 6.8, and 5 μl of PIMT solution (from the Isoquant Isoaspartate Detection kit, Promega) (final volume 50 μl/well) and incubated at 37° C. for 16 h. After incubation the plates were washed with 0.9% sodium chloride and cell adhesion assay was performed as described above.

RMA lymphoma = RMA lymphoma tumor growth in mice, heat-treated FN-I5; format: in vivo, mouse; conditions: 200 μg i.p. daily from day 4; p=0.0003 at day 14
Method: (B) Anti-tumor effects of repeated administration of “heat-treated” FN-I5 to RMA-tumor bearing mice. Animals (5/group) were treated with 200 μg of “heat-treated” FN-I5 (i.p.) at the indicated times (arrows) starting 4 days after tumor implantation. * p=0.0003 at day 14, statistical analysis by two tailed t-test.
Studies on animal models were approved by the Ethical Committee of the San Raffaele H Scientific Institute and performed according to the prescribed guidelines. C57BL/6N mice (Charles River Laboratories, Calco, Italy) weighing 16-18 g were challenged with subcutaneous injection in the left flank of 7×10^4 RMA living cells; 4 days later, the mice were treated daily with 200 μg of heat-treated FN-I5 (100 μl) in 0.9% sodium chloride (i.p.). Tumor growth was monitored by measuring the tumors with calipers as previously described (Gasparri et al., 1999). Animals were sacrificed before the tumors reached 1.0-1.3 cm in diameter. Tumor sizes are shown as mean±SE (5 animals/group).

[2] = test system: EA.hy926 cell adhesion to vitronectin; assay: inhibition of EA.hy926 cell adhesion to vitronectin; format: cell-based, human; conditions: vitronectin 3 μg/ml coated
Method: (A) Inhibition of EA.hy926 cell adhesion to vitronectin by heat-treated FN-I5. Vitronectin (3 μg/ml) was adsorbed to microtiter plate and cell adhesion assay was performed as described in Materials and Methods.
(§1) Untreated and “heat treated” fibronectin fragments, peptides and peptide-TNF conjugates were diluted at the desired concentration with 150 mM sodium chloride, 50 mM sodium phosphate, pH 7.3, and added to 96-well polyvinyl chloride microtiter plates (Falcon, Becton Dickinson). After overnight incubation at 4° C., the plates were washed, seeded with EA.hy926 cell in DMEM containing 0.1% BSA (40000 cells/well) and left to incubate for 2-3 h at 37° C., 5% CO2. Adherent cells were fixed and stained with crystal violet as described (Curnis et al., 2005).

[3] = isoaspartate (isoAsp) quantification, ISOQUANT enzymatic assay; conditions: for isoAsp (%): pmol of isoAsp/pmol of peptide (%)
Description: IsoAsp content in untreated and “heat treated” CNGRC (SEQ ID NO: 6)—TNF and peptides was quantified by using the ISOQUANT™ Isoaspartate Detection Kit (Promega).

[4] = bolus, humans (Fraker et al., 1995); cited from earlier work
L-M mouse fibroblasts = assay: standard cytolytic assay with L-M mouse fibroblasts; format: cell-based; conditions: for Cytolytic Activity: in vitro, L-M murine fibroblasts
Description: Protein purity and identity were checked by SDS-PAGE, electrospray mass spectrometry and gel-filtration chromatography.
The cDNA coding for DGR-TNF (mouse TNF fused with the C-terminus of CDGRCG (SEQ ID NO: 24)) was obtained by PCR on NGR-TNF plasmid, using the following primers: 5′ […] 3′ (SEQ ID NO: 43) (5′ primer); 5′ […] ′3 (SEQ ID NO: 44) (3′ primer). Both primers were designed to allow the directional cloning into a pET101/D-TOPO plasmid expression kit (Invitrogen). The underlined sequence in 5′ primer contains the sequence necessary to enable the directional cloning and the initial translation codon whereas the 3′ primer contains the stop codon (underlined). The PCR reaction and the cloning procedure were performed as recommended by the manufacturer's instruction. […] The column was washed extensively 100 mM Tris-HCl buffer containing pH 8.0, loaded with DGR-TNF crude extract, diluted in 20 mM Tris-HCl buffer conatining 2 mM EDTA pH 8.0, and desorbed by elution with 7 M urea, 100 mM Tris-HCl, pH 8.0. DGR-TNF was then refolded as described (1). Briefly, the denatured products were dialyzed against 2.33 M urea, 100 mM Tris-HCl, pH 8.0 at 4° C. (140 min), followed by 1.55 M urea, 100 mM Tris-HCl, pH 8.0 (140 min), and 1 M urea, 100 mM Tris-HCl, pH 8 (140 min). Finally the products were dialyzed against 100 mM Tris-HCl, pH 8.0 (48 h). The products were centrifuged at 13000×g (10 min, 4° C.) and concentrated by ultra-filtration through a 10 KDa cut-off filter. All solutions used in the purification and refolding steps were prepared with sterile and endotoxin-free water (S.A.L.F. Laboratorio Farmacologico SpA, Bergamo, Italy). Protein concentration was measured using the BCA Protein Assay Reagent (Pierce, Rockford, Ill.). Protein purity and identity were checked by SDS-PAGE, electrospray mass spectrometry (ESI-MS) and analytical gel-filtration chromatography.

EA.hy926 cells [5] = assay: EA.hy926 cell adhesion assay on coated microtiter plates; format: cell-based, human; conditions: for EA.hy926 cell adhesion to coated product after heat-treatment: 0.1 M ammonium bicarbonate buffer, pH 8.5, 16 h at 37° C.
Method: Adhesion of EA.hy926 cells to microtiter plates coated with various peptides and proteins before and after accelerated aging. Accelerated aging was performed by peptide incubation in 0.1 M ammonium bicarbonate buffer, pH 8.5, for 16 h at 37° C. (“heat-treatment”). Adhesion to: recombinant FN-I4-5 or control protein (FN-I4-5 (SGS)) (A), synthetic FN-I5 (B), recombinant CNGRC-TNF, CNGRC-TNF1-11 and control CARAC-TNF1-11 peptide (C), CDGRC-TNF (D). Heat-treated (37° C.) and untreated (−20° C.) products were adsorbed onto the plastic surface of microtiter wells (overnight at 4° C.). Microphotograph of wells coated with 30 μg/ml of heat-treated FN-I5 or BSA (B, right) or with 10 μg/ml of recombinant CNGRC-TNF or CDGRC-TNF (C, right), ×200. Cell adhesion assay was carried out as described in Materials and Methods. The TNF fusion constructs, including the TNF1-11 fusion constructs, were made as described Materials and Methods, and include a “G” linker.
as §1

αvβ3 integrin [6] = target: T1, αvβ3 integrin (Homo sapiens, UniProt P05106+P06756); assay: direct ELISA binding to purified integrin adsorbed on microtiterplates
T1 construct: purchased Immunological Sciences
Method: (A) Binding of heat-treated CNGRC-TNF and TNF to solid phases coated with purified human integrins. Single concentration (5 μg/ml) or various concentrations (inset) of CNGRC-TNF and TNF were used. Binding was detected with anti-TNF antibodies as described in Materials and Methods.
(B) Binding of biotinylated CNGRC-TNF1-11, CARAC-TNF1-11 and FN-I5 (complexed with streptavidin-peroxidase) to purified human integrins. Binding was detected by chromogenic reaction with o-phenylendiammine.
(§2) Human αvβ3, αvβ5, α5β1 and α1β1 integrins solutions, 0.5-2 μg/ml in phosphate buffered saline with Ca^2+ and Mg^2+ (DPBS, Cambrex), were added to 96-well polyvinylchloride microtiter plates (50 μl/well) and left to incubate overnight at 4° C. […] Bound peroxidase was detected by adding o-phenylendiammine chromogenic substrate.
(§3) Binding of biotinylated peptides (CNGRC (SEQ ID NO: 6)-TNF1-11, CARAC (SEQ ID NO: 36)-TNF1-11 and FN-I5) to purified integrins was studied using streptavidin-peroxidase conjugate complexes. Complexes were prepared by mixing various quantities (0.5-1 μg) of heat-treated biotinylated peptides in DPBS containing 3% BSA with 0.03 units of streptavidinperoxidase (binding capacity: 1 μg of biotin/unit of streptavidin-peroxidase) (final volume 15 μl). […] After washing with DPBS, bound peroxidase was detected by chromogenic reaction as described above. […]

αvβ3 integrin [7] = target: T1, αvβ3 integrin; assay: competitive binding of biotinylated NGR-TNF to αvβ3 coated plates; conditions: FN-I5 incubated at 37° C. in DMEM
Method: Biotinylated NGR-TNF (4 μg/ml) was mixed with different amount of the indicated peptides and added to αvβ3 coated plates. Binding was detected as described in Materials and Methods. IC50 was determined by nonlinear regression analysis using the GraphPad Prism software. The kinetics of deamidation of FN-I5 was determined by plotting the inhibitory concentration (IC50) versus the incubation times. Bars represent the confidence intervals for each determined IC50.
as §2, with “C. All subsequent steps were carried out at room temperature.” for “C.”
as §3

T1 sequence (P06756 31-889 limits assumed): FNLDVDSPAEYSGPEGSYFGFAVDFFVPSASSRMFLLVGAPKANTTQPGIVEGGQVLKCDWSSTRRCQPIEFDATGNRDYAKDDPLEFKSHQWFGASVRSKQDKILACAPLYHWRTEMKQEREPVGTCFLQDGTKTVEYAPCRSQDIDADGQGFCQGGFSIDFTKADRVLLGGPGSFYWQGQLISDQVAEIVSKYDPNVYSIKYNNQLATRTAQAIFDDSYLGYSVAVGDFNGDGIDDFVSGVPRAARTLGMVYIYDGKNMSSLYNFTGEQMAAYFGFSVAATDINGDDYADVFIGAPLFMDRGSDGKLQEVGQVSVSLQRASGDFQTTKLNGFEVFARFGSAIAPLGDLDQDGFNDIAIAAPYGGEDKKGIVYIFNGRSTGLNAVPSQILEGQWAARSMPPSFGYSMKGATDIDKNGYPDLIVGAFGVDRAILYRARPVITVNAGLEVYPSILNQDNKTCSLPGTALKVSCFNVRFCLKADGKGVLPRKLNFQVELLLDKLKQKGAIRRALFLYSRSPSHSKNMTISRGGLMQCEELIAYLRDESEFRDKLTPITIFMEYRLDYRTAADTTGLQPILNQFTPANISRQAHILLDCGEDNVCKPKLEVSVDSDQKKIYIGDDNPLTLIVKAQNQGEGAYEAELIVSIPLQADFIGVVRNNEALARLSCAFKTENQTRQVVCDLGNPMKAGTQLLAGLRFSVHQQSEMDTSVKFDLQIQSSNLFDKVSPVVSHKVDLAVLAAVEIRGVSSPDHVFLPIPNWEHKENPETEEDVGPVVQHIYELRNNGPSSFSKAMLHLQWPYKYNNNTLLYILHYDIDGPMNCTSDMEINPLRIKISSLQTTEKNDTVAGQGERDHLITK
T1 sequence (P06756 891-1048 partner limits assumed): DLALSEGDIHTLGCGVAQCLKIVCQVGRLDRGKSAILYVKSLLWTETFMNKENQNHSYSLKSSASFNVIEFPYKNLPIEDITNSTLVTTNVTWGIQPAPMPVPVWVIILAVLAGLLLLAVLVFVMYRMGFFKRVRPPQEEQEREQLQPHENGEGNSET
T1 sequence (P05106 27-788): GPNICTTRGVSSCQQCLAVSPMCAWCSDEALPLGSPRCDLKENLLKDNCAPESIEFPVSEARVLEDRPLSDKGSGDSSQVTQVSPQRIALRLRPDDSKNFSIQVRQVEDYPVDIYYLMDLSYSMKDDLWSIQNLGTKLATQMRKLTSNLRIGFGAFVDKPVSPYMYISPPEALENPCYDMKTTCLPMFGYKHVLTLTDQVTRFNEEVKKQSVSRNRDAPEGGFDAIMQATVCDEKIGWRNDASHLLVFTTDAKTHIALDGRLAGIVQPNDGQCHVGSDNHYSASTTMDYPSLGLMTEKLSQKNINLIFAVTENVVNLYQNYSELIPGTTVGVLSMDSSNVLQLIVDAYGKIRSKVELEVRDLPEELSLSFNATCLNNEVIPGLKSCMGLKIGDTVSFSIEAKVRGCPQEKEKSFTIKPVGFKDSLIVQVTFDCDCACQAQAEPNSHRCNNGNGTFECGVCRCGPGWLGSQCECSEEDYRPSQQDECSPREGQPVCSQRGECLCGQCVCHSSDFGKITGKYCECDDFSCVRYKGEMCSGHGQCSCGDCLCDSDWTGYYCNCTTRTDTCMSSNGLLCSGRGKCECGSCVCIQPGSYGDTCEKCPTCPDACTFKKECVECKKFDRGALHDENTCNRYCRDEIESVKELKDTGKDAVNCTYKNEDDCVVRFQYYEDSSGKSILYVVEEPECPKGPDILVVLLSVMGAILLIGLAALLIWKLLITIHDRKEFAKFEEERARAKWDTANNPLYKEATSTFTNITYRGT

Molecule: heat-treated FN-I5: FN-I5 incubated in 0.1 M ammonium bicarbonate buffer, pH 8.5, 16 h at 37° C. (deamidated)
effect of PIMT on pro-adhesive activity (EA.hy926 cells [1]): almost completely inhibited | tumor growth in RMA lymphoma bearing mice (RMA lymphoma): significantly inhibited tumor growth | inhibition of adhesion of EA.hy926 cells to vitronectin [2]: could inhibit

Molecule: TNF: murine TNF by recombinant DNA technology; in b159 bolus TNF in humans (literature) [reference compound]
isoAsp (%) [3]: 2.6% | maximum tolerated dose [4]: 218-410 μg/m^2 | Cytolytic Activity (L-M mouse fibroblasts): 8 × 10^8 U/mg | EA.hy926 cell adhesion to coated product after heat-treatment (EA.hy926 cells [5]): No adhesion | EA.hy926 cell adhesion to coated product (EA.hy926 cells [5]; before heat treatment): No adhesion | binding to αvβ3 (αvβ3 integrin [6]; heat-treated products, in words): No binding

incubation time to maximal competitive binding activity (αvβ3 integrin [7]): 24 to 48 h
Molecule: FN-I5: synthetic peptide, 5th type I repeat of human fibronectin, residues 230-274, additional N-terminal acetyl-glycine, Glu250 in place of Asp250

binding to αvβ3 before heat treatment (αvβ3 integrin [6]; untreated, data not shown): to a lower extent
B1: Cys-Asn-Gly-Arg-Cys-Gly-(SEQ ID NO: 7)TNF (protein)
chain: CNGRCGLRSSSQNSSDKPVAHVVANHQVEEQLEWLSQRANALLANGMDLKDNQLVVPADGLYLVYSQVLFKGQGCPDYVLLTHTVSRFAISYQEKVNLLSAVKSPCPKDTPEGAELKPWYEPIYLGGVFQLEKGDQLSAEVNLPKYLDFAESGQVYFGVIAL
notes: murine TNF fused with the C-terminus of CNGRCG, recombinant
isoAsp content after heat treatment ([3]; 0.1 M ammonium bicarbonate pH 8.5, 16 h, 37° C.): > 0.5 mol isoAsp/mol CNGRC-TNF subunit | isoAsp (%) [3]: 29.8% | cytolytic activity after heat treatment (L-M mouse fibroblasts; 0.1 M ammonium bicarbonate buffer, pH 8.5, 37° C., 4 h of treatment): no loss of cytolytic activity | Cytolytic Activity (L-M mouse fibroblasts): 2.96 (±0.56)×10^8 U/mg | Cytolytic Activity (L-M mouse fibroblasts; listed as NGR-TNF): 2.9 × 10^8 U/mg | EA.hy926 cell adhesion to coated product after heat-treatment (EA.hy926 cells [5]): increased cell adhesion

B2: heat-treated CNGRC-TNF: CNGRC-TNF incubated in 0.1 M ammonium bicarbonate buffer, pH 8.5, 16 h at 37° C. (protein)
chain: B1 chain
effect of PIMT on pro-adhesive activity (EA.hy926 cells [1]): almost completely inhibited
